According to patent US10011641B2:
Non-standard residues stand in square brackets, D forms with d. No end group written: not given here. Z06677 = not defined here

Key:
[1] = molecular target: PEP17081 (Artificial sequence); assay: affinity purification on anti-ABD agarose, spectrophotometric analysis of the eluted pool
[2] = molecular target: PEP06548 (Artificial sequence); assay: affinity purification on anti-ABD agarose with about 2.3 mg ligand per ml resin, absorbance measurement

binding capacity (mg PEP17081 per ml resin) [1]: 13
purified protein obtained per ml of resin (mg per ml of resin) [2]: 3.7
sample molecules per ligand ([2]; scale: PEP06548 molecule per): 1
Binder: GSSLQ[Z06677][Z06677]VDC (designed binder, reading uncertain; also: printed as GSSLQ-[Z06677][Z06677]-VDC) [(Z06677)2-Cys]
